Experimental findings from the DeepSol protein solubility set are described below.

The nature of this series: soluble on expression in E. coli; label from the status in PepcDB or PDB records.
For the sequence “LSYHVIGPLRELTSTARRLGRGELDARVTYSGEDELAQLGERFNQMAGELKSIYGDLEERVEDKTRALSQSHQRLELLYASARRLGENPYDSRTLQPLLNQLEKVLDAGRVTLCLNKDGVERAYSSLTTTERPADFCLQGDCGSCREQASACDQPSSLAQPLLMQPLSIAGHRFGELFIESRSGRLENWQQQLIETFCDNIARTFALSLQQEQESRLALFAERGTIARELHDSLAQSLSYLKIQVSRLGTLLKREAPAEKIEDTLDELREGLNGAYRQLRELLTTFRLSLDEPSLEAALGNAVAEFGERGEVTIELDNRLQHVPLSPNEEIHVLQIVREALSNVVRHSQAQRAWVRLSSQADGQVSIAVEDDGVGFDPQQNRSGHYGLTIMQERGQTLGSQLRFEARAPHGTRVLFSFVPTALQP”, the “soluble on expression in E. coli” value is “not soluble”.
The entry for “MGSDKIHHHHHHMKEVKIGKDKISVALCTYNGEKFIREQLRSIVGQTILPWQIVVCDDQSTDRTMDIVREFADDYPSIRWMIIRNEVRLGVRRNFEKAIALAEGDYIAPSDQDDIWERNKLEILLHIMREKKVSLVHSNIRYVDVKGREMTERLDFPCSVPLATYLYGLNNVMGCTCLFCASLKDILFPFPIHYYYHDQWLAIMAYHNGGIYLCDHKLVRYRQHADNVVSAICGGGKREGEELGLSYFVGKAEDIYLLLHRRKQIKYSQKDWWRLAWLYVSNRLGLAWLKFKLL” is “not soluble”.
In the case of “MRLISKPVLCNYYVTYRCNATCGFCDIWEKPSPYVTPEAVEQNMRDLKKLGVKVIDFTGGEPLLHREMDTLLRIAKKYGMITTLTTNALLYPKWAERLKGLIDMLHFSLDSPDKAEHDTLRGVACFDFVLESIEKAKALGERPDIIFTVFNHNIHLIKRMYEEICLPNNLILILNPSFEYNQVEVGTGLQKKELDILSYWAKQKNIYINEAFIQLRLDGGNHTADPVCKAASSTLVISPENKLVLPCYHLGTDSFQIENNLFDLYHSKEVRAIIAQEGKLDACEGCTINCYMQPSFAVEINKYWFKAMPSTLKYSREKGTWKQLFR” it was “not soluble”.
Regarding “MAKVVSKANQSQGMLMFKLTLQQNFAIGTLKVREIVPYMPTTKIPYSHHHVIGTVTIRDLTVPVIDMSAAVGFRPITQEEYKNCYLIVTDCLRTVVAFMVRSIEKIIECDWKAIETPPASAGKNIFVTGITRYGDQTVQMLDVELLLSKIYPQYENANIPMLTDVERERLKA”, the “soluble on expression in E. coli” value was “not soluble”.
In the case of “MGSDKIHHHHHHMVMERGEIIGIVLQKSEANEMQGLIRADEEISVGQLLLVDDSEKLSLVRVENYEFLNEFFDEKGEIAKSILKEPSIYEILDMNTIIKATLHLIKKYDHNTTPKPGSFVRRLPEIKSEKELLSFYGIKNKKGLIEYGALAGSEIPLLLDLNAITMHMGVFGETGSGKSYNMRYLIKLLSNIKIGDKITALPMIVIDANGDYIDLASTNLDIVSKGRGWIKRYILKDPKEQNDIKLTIDLSIFTPRELSEFIMSLKYGEASYNTLQLNFLEQVLANHESKEYNTLLGSAIGIETLRNEILTMAQNKDIGITTGTARGIASALEIFKNKVISRLQLVNSSASLTENTLEVIWRNRGLAIIDFSADGSPGVDVLTKQLIVSYITRLIFNYLTRSKYNGNQRFLGFVIEEAQNYIPSIDYPVNANLTKDVLVTLATQGRKFGASLILVSQRPAFIDKYVLSMINTFFFHRIYHEDVRYVMSASGGLPESLTKNLTSLDTGYVIVSGLMSIMKSPALVRIPWDPRLGSYAGNVERIDLILSEG” it was “not soluble”.
As to “MAHHHHHHMDTNDYENLRFYNYIPVNKELKKSCIPCPDTEDYEAKLNKEFDEELTKVFQGNILDQINAKDINADLKRDLKKKLDILSKKTDKAVVQLIKQKINENKNKENITNTNDDEKEKETMTLNFDKKGDKNFGHVLYKTLDKLDVMDDESD”, the “soluble on expression in E. coli” value is given as “soluble”.
In the case of “MGSDKIHHHHHHMIVGFAGKLYKNYEKDGIELLKEVTDEALDIAGLNYADVDGIMANIGRGSFHGNRTYLNPPAQISEYFGIKPKIIEHVQYGGPSVLSMIYRAYKAIKAGDAETILCIQGGKISHLRDNHFQKTDIIDSPFDEYIKIYDQMSPISDYAMVAYRHSKLFGTTDEQRARIAVIQRYNASYNPKALFRNPITVEDVLKSRIVSYPLHLLEIVYPIDGFHVFVVSKRSSKSALRNIDILAYGEAHWPNPPAEWDDIIYTPTTESAKRASFDLNRVDAFQLYDSFTITVMLQMEDIGLVEKGKVGQFVESHDLSFKGDVPINTGGGSLNTGQPAYMSGGVILEEALLQLNDMANGHQVKGANVIFLNGIGWWSRRHSVTLVLGERK” it was “not soluble”; in that of “MAFLGYGAAAALGGALVYANLPTYLTIGAVAPTFAHLAAAKLVPIRGGPKEKEVVERNEQFTADSLFKKGPIMVMAVRRPGCMLCRREAAELHTLLPLLKEKGIELAAVVHETRGANEFKSWFSGGDVYLDTDRTFYGPNERWLPVWMGFLRFGTYSNVYKAKKAKVEGNMEGEGRLLGGVYLIANNDIVFTHLEKEWGDAADIKEVRAAVEKFSEKSK”, “not soluble”.
The entry for “MRRICKDERRIQSVNSSEEIAVSGMSAGRSAMRMGPAELVQAAAMARRFYLEGKSKIQIAEEFGVSRFKVARVLETALERDLVRIEIRVPAELDAERSDALRARYGLRHAVVVESPADAEETPDPENLGEVAADLLGELVNEGDVLGLAWGRSTIHMAAALDRLPPCTVVQLTGVYDAGTAERGSVEAVRRAAQVSGGDAHPIYAPMLLPDAATAQALRHQTGIARAFEYFDKVTVACVSIGSWEPGISTVHDMLSDEERAHYASLGVAAEMSAHLFDAEGRRVGRDLGERCITVKADQLRRIPEVVAIAGGQRKAAAIDAVLRSGLVTSLVTDTSAADYLMTVGSAPKSTLNRTDPDGI” is “not soluble”; for “MGSDKIHHHHHHMRYTLRQLEVFVAIAQHESVSLAARRLAMSQSATSTALAELERQFDCQLLDRIGKRLKLNALGFQLLPKAVALLDRGEEIEELLKGQRGIGSLDVGATLTIGNYLATLLISDFMRRHPGSRVRLHVRNTASIVDRVTHHDLDLGLIEGDCQHDDIVMQPWVEDELTVFCSPRHPLANAGEADLEALMREDWIMREEGSGTRRTLDQAMRHRRGRLNVLLELEHTEAIKRAVESGLGIGCVSHLALRDAFRRGSLVPIATPELDLTRQFTFIWHRHKYLTTAMREFLRLCREMTAGVQRSDEIDLPAVP” it is “not soluble”.
Consider “MGSDKIHHHHHHMEANNGKMERIQEMLRMFGLSSYEAQGFAALVYHGVANADTIASTANIPRTSAYKVMESLVRKGLAKATEGRPRMFKPAKMEEIRDYYEEKLQQLFRDLKELEDNAPSRGEPQLIYTINGSQKVMEKIEEMINLTEHEIMISTPKIIEIRKQMKKPIENAIKRGVRVVFVIPPNKRVPANVIVYRRDGLIATDIVSDQIRALIAGPDLETCGYSDNPMLSMHVYQFINILINKPEIQG”, for which the “soluble on expression in E. coli” value is given as “not soluble”.
The entry for “MKPRETKLLGSIREAIEKTGLKDGMTISFHHHFREGDYVMNLVLAEIAAMGLKNISIAPSSIANVHEPLIEHIKNGVVTNITSSGLRDKVGAAISAGIMENPVVIRSHGGRARAVAAGDIHIDVAFLGAPSSDAYGNANGTKGKATCGSLGYAMVDAKYADQVVIITDTLVPYPNTPISIPQTDVDYVVEIDAIGDPDGIAKGATRFTKNPKELLIAEYAAKIITHSPYYKEGFSFQTGTGGSSLAVTRFMREQMLKDGIKASFALGGITNAMVELLEEGLVEKIIDVQDFDHPSAISLGENANHYEIDANMYASPLSKGAVINQLDTAILSALEVDTDFNVNVITGSDGVIRGASGGHSDTSMACKMSLVIAPLVRGRIPTIVEQVNTVVTPGTSVDVVVTEVGIAINPKRTDLIDCFKTLDVPQFTLEELKDKAYNIVGTPEPIKYGDKVVALIEYRDGSLIDVVRNVLEHHHHHH” is “soluble”.
Consider “MEVVKMPFGVPGWKWKVGKFGYTVENEPNYEEIKAKAKEVLSRTTKGIAWRGHCGSLHIPLVFEGQIIGELWEDADPKEVEIGAYWFGKWGIKVQLVKDGRVIGFIWLA”, for which the “soluble on expression in E. coli” value is “soluble”.
For the sequence “MTKFVAKKAILLLSLLLLGTAESKPLDAEQQHIDDQHVRKERQLKMAGSADPDVKMVANVTPATGSQPMSMTMGVPMNQMALSSVGGQLVRYPNYPGLIYPGLAPAPGLNGVPGLQTNIANNYPSYPDPNLTGSVPGFNPFGSFGYPGVAPMYGNSLMYPNPQLPNGFVPNPAVDNFQSLNNIVNMANVQGLAGGSSGIYPAPQGFGGVSPGLYPAPQGFGGANPGLYPAPQVNMQGLYPPSGGFLERMNMQGYAPGFLEHHHHHH”, the “soluble on expression in E. coli” value was “not soluble”.
The entry for “MGSDKIHHHHHHMKKVIPALALVLLTTGLVGCDRVEPGNVGIKVNKLGDDKGVGEVVGVGRYWTGWNTEVYIFPTFKQMKTYDEPFSFQMSDGTTIGYHIGVAYKVDPSKVTTVFQTYRKGVDDITDTDLRQKIADALNRLASKMTTDKFIDGGKSELLDAALKDIQEEMTPIGIQVMSLSYVGKPEYPPTVIDSINAKVTANQKTLQCEQEVKQREAEANMLRAEAAGQADAIRTKAQAEADAIRLRGEALRQNPNVMELEAINKWNGTLPQYMTSGANTPFIQVK” is “not soluble”; for “MATAEVLNIGKKLYEGKTKEVYELLDSPGKVLLQSKDQITAGNAARKNHLEGKAAISNKITSCIFQLLQEAGIKTAFTRKCGETAFIAPQCEMIPIEWVCRRIATGSFLKRNPGVKEGYKFYPPKVELFFKDDANNDPQWSEEQLIAAKFCFAGLLIGQTEVDIMSHATQAIFEILEKSWLPQNCTLVDMKIEFGVDVTTKEIVLADVIDNDSWRLWPSGDRSQQKDKQSYRDLKEVTPEGLQMVKKNFEWVAERVELLLKSESQCRVVVLMGSTSDLGHCEKIKKACGNFGIPCELRVTSAHKGPDETLRIKAEYEGDGIPTVFVAVAGRSNGLGPVMSGNTAYPVISCPPLTPDWGVQDVWSSLRLPSGLGCSTVLSPEGSAQFAAQIFGLSNHLVWSKLRASILNTWISLKQADKKIRECNL” it is “soluble”.
Regarding “MSSNAQAIAGLEDRSAIPPTALKATLDHRLGEAAPSDYAKTLLASADAPTLRHLLGLGDAAVMDTGSGKNLDADLLDGYHGTYYLQWRNLQNTPQTYPPSAHQHASSDIPELASQLDTLVKKTGSLMTGSLQSQGTLIGDALGNGRIPALKIGNDCEFWDNNIPYAATFRSGTSPAIAQLFFGTSNHCYFGTSTKNTSTVIGAKTGLLWIETAGNYYYQQHDTTHVAFYKKNGGHAFFWRRSDSGGSGSTNEVQLMALEDNGNLSVKGTIVSAGGYAQGSSRKLKDIEGPLPYGLAEIEQLTPLIGRYKPSYTPDGRRRLFLEAEQLLDLMPETVNPEGIPFQGAYVPSVNLDQLLPVLVNAIAQLSAKVNALTDAPRHAEKLEHHHHHH”, the “soluble on expression in E. coli” value was “not soluble”.
The entry for “AADITVASYNIHKGVGTDRRRDLRRTAAVIAELDADLVALQEADRRFGDRAGLLDLEHLKDETGLVPVKVEGRGRAHGWHGNLLLVRDAEVEEVQKIVLPSFEPRGALMIDMMIRGRPLRVIAAHLGLLPASRAAQTRHLLERIEASTPRPTLLMGDLNEWRGTGAAMGHLARHFTGGVMVRSFPSRFPILALDRLMTCKHGQLHDVSTHDTPLARRASDHLPIKARLHLP” is “not soluble”.
On to “MGSDKIHHHHHHMETQDYAFQPGLTVGELLKSSQKDWQAAINHRFVKELFAGTIENKVLKDYLIQDYHFFDAFLSMLGACVAHADKLESKLRFAKQLGFLEADEDGYFQKAFKELKVAENDYLEVTLHPVTKAFQDLMYSAVASSDYAHLLVMLVIAEGLYLDWGSKDLALPEVYIHSEWINLHRGPFFAEWVQFLVDELNRVGKNREDLTELQQRWNQAVALELAFFDIGYDV”, for which the “soluble on expression in E. coli” value was “soluble”.
